Source: paper PMC9122593
Like-named read-outs stand apart in the source and are kept apart here.

B1: crRNA-1/lambda-activator + lambda ssDNA (T-strand) (mixed)
RNA: AAUUUCUACUGUUGUAGAUUGUAAAGAAACAGUAAGAUAAU
DNA: CATCGGGTTGAGTATTATCTTACTGTTTCTTTACATAAAC

What was measured:
[1] = molecular target: T1, wtCas12a (Francisella novicida, UniProt A0Q7Q2 1-1300); assay: Mg2+
[2] = molecular target: T1, wtCas12a; assay: Mg2+; remark: listed apart in the source

T1 sequence (A0Q7Q2 whole entry): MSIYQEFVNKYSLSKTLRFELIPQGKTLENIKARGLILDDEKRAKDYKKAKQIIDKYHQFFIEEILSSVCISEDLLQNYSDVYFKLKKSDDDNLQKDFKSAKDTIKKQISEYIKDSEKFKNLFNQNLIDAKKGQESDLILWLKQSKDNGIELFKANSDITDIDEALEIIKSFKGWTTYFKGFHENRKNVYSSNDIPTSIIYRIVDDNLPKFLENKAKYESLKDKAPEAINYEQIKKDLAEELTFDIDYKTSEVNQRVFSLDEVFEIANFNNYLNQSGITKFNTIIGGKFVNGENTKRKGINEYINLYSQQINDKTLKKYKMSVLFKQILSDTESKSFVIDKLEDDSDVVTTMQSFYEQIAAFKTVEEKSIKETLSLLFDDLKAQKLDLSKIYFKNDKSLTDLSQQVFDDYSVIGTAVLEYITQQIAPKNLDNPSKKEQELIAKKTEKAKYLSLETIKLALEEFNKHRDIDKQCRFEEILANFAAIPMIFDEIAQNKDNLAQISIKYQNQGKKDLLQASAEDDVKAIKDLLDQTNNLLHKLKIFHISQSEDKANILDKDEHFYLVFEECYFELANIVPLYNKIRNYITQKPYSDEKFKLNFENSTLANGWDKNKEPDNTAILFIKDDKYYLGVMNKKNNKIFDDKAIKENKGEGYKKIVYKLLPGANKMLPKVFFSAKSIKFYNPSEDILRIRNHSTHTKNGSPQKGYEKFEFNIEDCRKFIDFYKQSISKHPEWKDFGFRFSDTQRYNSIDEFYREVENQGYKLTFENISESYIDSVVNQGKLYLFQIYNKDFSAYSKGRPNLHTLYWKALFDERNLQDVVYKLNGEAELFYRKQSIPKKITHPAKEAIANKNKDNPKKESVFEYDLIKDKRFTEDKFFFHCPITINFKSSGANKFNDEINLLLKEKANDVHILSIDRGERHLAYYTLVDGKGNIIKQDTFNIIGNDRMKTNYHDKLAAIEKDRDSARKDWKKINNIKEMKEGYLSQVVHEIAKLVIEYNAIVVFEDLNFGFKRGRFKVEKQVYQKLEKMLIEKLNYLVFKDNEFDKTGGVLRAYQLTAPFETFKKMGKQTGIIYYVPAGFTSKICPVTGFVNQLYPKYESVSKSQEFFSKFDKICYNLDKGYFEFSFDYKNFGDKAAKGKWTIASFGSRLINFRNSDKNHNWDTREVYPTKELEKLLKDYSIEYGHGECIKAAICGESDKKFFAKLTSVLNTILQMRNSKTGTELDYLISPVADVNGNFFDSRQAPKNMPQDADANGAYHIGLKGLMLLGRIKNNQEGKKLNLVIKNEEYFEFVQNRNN

| Binder | binding result [1] | binding result [2] |
| --- | --- | --- |
| AAUUUCUACUGUUGUAGAUUGUAAAGAAACAGUAAGAUAAU (mixed) [crRNA-1 + lambda ssDNA (T-strand), no activator] | no binding |  |
| B1 |  | binds |
